For test [1], the target named is T1, combined FGFR1 Ig modules 2, 3 (mouse, UniProt P16092 141-365).
T1 construct: Expressed in Drosophila S2 cells; immobilized on CM5 chip by amine coupling in the SPR experiments; also called FGFR Ig modules 2, 3; FGFR modules 2, 3
T1 sequence: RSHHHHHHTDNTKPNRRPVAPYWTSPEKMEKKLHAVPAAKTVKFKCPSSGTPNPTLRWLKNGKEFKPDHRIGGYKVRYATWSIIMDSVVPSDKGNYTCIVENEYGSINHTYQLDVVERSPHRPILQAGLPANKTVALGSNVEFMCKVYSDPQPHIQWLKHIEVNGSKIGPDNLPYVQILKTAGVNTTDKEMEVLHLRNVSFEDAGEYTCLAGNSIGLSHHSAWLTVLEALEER
Kind of test: SPR (BIAcoreX), FGFR Ig modules 2, 3 immobilized on CM5. (In general: Surface plasmon resonance follows binding to a sensor surface in real time, without labels.)

The target of test [2] is T1, combined FGFR1 Ig modules 2, 3. As to the kind of experiment: SPR, FGFR Ig modules 2, 3 immobilized.
For test [3] the target is unchanged. Kind of test: SPR, apparent Kd, FGFR Ig modules 2, 3 immobilized.
Test [4] addresses FGFR on embryonic rat hippocampal neurons (rat). Kind of test: cell-based or functional assay.

No end group written: not given here.

B1: combined NCAM F3 modules 1, 2 (other, rat)
chain: AGHHHHHHQADTPSSPSIDRVEPYSSTAQVQFDEPEATGGVPILKYKAEWKSLGEEAWHSKWYDAKEANMEGIVTIMGLKPETRYAVRLAALNGKGLGEISAATEFKTQPVREPSAPKLEGQMGEDGNSIKVNLIKQDDGGSPIRHYLVKYRALASEWKPEIRLPSGSDHVMLKSLDWNAEYEVYVVAENQQGKSKAAHFVFRTSAQ
notes: range 507-705; Recombinant, expressed in P. pastoris KM71; also called double module protein
The term koff denotes the first-order rate constant of dissociation. The term kon denotes the second-order rate constant of association. As to B1, in test [1], the Kd was determined as 9.97 µM, the koff worked out at 0.00556 s⁻¹ and the on-rate (kon) was 889 M⁻¹ s⁻¹.

B2: dendrimeric FG loop peptide (SEQ ID NO: 1) (peptide)
peptide: EVYVVAENQQGKSKA
modifications: also: tetrameric dendrimer: four peptides joined through their C-termini to a three-lysine backbone
notes: Tetrameric dendrimer on a three-lysine backbone; also called dendrimeric version of the FG loop peptide
On to B2, for which, in test [2], the koff is 0.00397 s⁻¹ and the kon worked out at 2070 M⁻¹ s⁻¹. Moreover, the Kd in test [3] was found to be 2.58 µM.

B3: FG loop peptide in which Y74, K83 and K85 were substituted with alanine (peptide)
peptide: EVAVVAENQQGASAA
Take B3: in test [4], the “neurite outgrowth from hippocampal neurons, stimulatory effect relative to the non-mutated peptide” value was approximately 60%.

B4: truncated FG loop peptide, heptamer Ala77-K83 (peptide)
peptide: AENQQGK
Consider B4, for which, in test [4], the “neurite outgrowth from hippocampal neurons, stimulatory effect relative to the entire FG loop peptide” value was approximately 50%.

B5: truncated FG loop peptide, nonamer V78-S84 (as printed) (peptide)
peptide: VAENQQGKS
B5: the “neurite outgrowth from hippocampal neurons, stimulatory effect relative to the entire FG loop peptide” value in test [4] was approximately 50%.

These data come from US20060281130A1 (ENKAM PHARMACEUTICALS A S, published 2006).
